In paper PMC12234435, “Monoclonal antibody neutralizes Staphylococcus aureus serine protease-like protein B (SplB)-induced pathology” (Infection and Immunity, 2025):

Assays:
[1] = molecular target: T1, recombinant tag-free Staphylococcus aureus serine protease-like protein B (SplB) (Staphylococcus aureus (strain NCTC 8325 …, UniProt Q2FXC3)); assay: cell-based or functional assay
[2] = molecular target: T2, recombinant tag-free Staphylococcus aureus serine protease-like protein A (SplA) (Staphylococcus aureus NCTC 8325 (strain …, UniProt Q2FXC2)); assay: ELISA; indirect ELISA for cross-reactivity with recombinant tag-free SplA, SplD, SplE and SplF; settings: both partners purified
T2 construct: serine protease-like protein A (SplA) of Staphylococcus aureus, tag-free

[3] = molecular target: T3, recombinant tag-free Staphylococcus aureus serine protease-like protein D (SplD) (Staphylococcus aureus (strain NCTC 8325 …, UniProt Q2FXC5)); assay: as above; settings: both partners purified
T3 construct: serine protease-like protein D (SplD) of Staphylococcus aureus, tag-free

[4] = molecular target: T4, recombinant tag-free Staphylococcus aureus serine protease-like protein E (SplE) (Staphylococcus aureus (strain NCTC 8325 …, UniProt Q2FXC7)); assay: as above; settings: both partners purified
T4 construct: serine protease-like protein E (SplE) of Staphylococcus aureus, tag-free

[5] = molecular target: T5, recombinant tag-free Staphylococcus aureus serine protease-like protein F (SplF) (Staphylococcus aureus (strain NCTC 8325 …, UniProt Q2FXC8)); assay: as above; settings: both partners purified
T5 construct: serine protease-like protein F (SplF) of Staphylococcus aureus, tag-free

[6] = molecular target: T6, native SplB in the extracellular proteins of S. aureus D29 (Staphylococcus aureus D29 (USA300 …, UniProt Q2FFT0, strain)); assay: Western blot; 5 µg extracellular proteins of S. aureus NCTC 8325-4 and D29 denatured, SDS-PAGE, blotted on PVDF; α-SplB1 300 ng/mL overnight at 4°C as primary antibody; settings: one partner purified
T6 construct: serine protease-like protein B (SplB), secreted by S. aureus D29, a community-acquired USA300 derivative (CC8); no identifier printed for this strain's SplB; Denatured, separated by SDS-PAGE and blotted; also called SplB in the ECP preparation

[7] = molecular target: T1, recombinant tag-free Staphylococcus …; assay: MST; RED-NHS-labelled tag-free SplB (40 nM) constant, α-SplB1 serially diluted from 3.42 µM to 0.209 nM; MST buffer with 0.05% Tween-20; RT; Monolith NT.115, 100% excitation power, 40% MST power; settings: both partners purified

B1: murine anti-SplB monoclonal antibody α-SplB1 (antibody, V domains shown)
VH: EVQLQESGPGILQSSQTLSLTCSFSGFSLNSVGMGVTWIRQPSGKGLEWLAHIYWDDDKLYNSSLKSRLTISKDTSRNQVFLNITSVVSADTATYYCARRVYGISYDYWYFDVWGTGTAVTVSS
VL: DILMTQSPATLSVTPGDRVSLSCRASQSISDYLHWYQQKSHESPRLLIKYASQSISGIPSRFSGSGSGSDFTLSINSVEPEDVGVYYCQNGHIFPPTFGAGTKLELK
notes: variable region of the heavy chain; mouse IgG1 heavy chain constant region (isotyping: IgG1 subclass); variable region of the light chain; mouse kappa light chain constant region (isotyping: κ light chains); IgG1, kappa; Raised against SplB-Strep; also called α-SplB1 mAb; anti-SplB mAb; source: hybridoma supernatant (C57BL/6N splenocytes fused with P3X63Ag8.653), purified (Protein-G-Sepharose)
- neutralisation of the cleavage of the synthetic substrate Ac-VEID-MCA by 2.5 µM tag-free SplB, pre-incubated with α-SplB1 at molar ratios 1:1 to 1:8 (SplB:α-SplB1), 37°C, 1 h [1]: 66 % neutralised (at 1:1 molar ratio; complete at 1:2)
- binding result [2]: no binding
- binding result [3]: no binding
- binding result [4]: no binding
- binding result [5]: no binding
- binding result [6]: binds
- Kd [7]: 37.9 nM
